Data published in article PMC3208551.

What was measured:
ActRII-ECD (mouse) = test: SPR; Biacore 2000; receptor ECDs immobilised on a CM5 chip by primary amine coupling, ligands flowed over; at least five concentrations plus zero; global 1:1 Langmuir binding with mass transfer, KD calculated as koff/kon
ActRII-ECD (mouse), sequence (P27038 whole entry, the tested form may be a part): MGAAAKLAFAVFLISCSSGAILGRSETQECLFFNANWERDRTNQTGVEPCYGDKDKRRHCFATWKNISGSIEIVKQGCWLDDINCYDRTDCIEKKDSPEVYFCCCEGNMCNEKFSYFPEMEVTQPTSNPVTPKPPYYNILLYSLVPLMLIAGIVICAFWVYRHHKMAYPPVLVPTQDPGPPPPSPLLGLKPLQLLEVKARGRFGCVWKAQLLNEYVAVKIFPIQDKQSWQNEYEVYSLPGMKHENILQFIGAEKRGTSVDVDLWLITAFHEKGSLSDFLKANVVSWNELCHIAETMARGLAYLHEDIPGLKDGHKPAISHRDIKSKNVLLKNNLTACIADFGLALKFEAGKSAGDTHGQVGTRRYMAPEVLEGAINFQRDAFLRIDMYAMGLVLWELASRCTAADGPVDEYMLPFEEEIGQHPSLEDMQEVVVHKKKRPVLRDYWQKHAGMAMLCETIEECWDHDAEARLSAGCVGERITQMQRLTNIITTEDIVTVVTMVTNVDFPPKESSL

For “BMP-2 (BBBBBB) (from UniProt P12643 283-396) (ligand)”, the Kd (ActRII-ECD (mouse)) was 36.8 nM, the koff (ActRII-ECD (mouse)) was 0.0405 s⁻¹ and the kon (ActRII-ECD (mouse)) was 1.1e+06 M⁻¹ s⁻¹.

B1: Noggin (natural protein)
chain: QHYLHIRPAPSDNLPLVDLIEHPDPIFDPKEKDLNETLLRSLLGGHYDPGFMATSPPEDRPGGGGGAAGGAEDLAELDQLLRQRPSGAMPSEIKGLEFSEGLAQGKKQRLSKKLRRKLQMWLWSQTFCPVLYAWNDLGSRFWPRYVKVGSCFSKRSCSVPEGMVCKPSKSVHLTVLRWRCQRRGGQRCGWIPIQYPIISECKCSC
B1 gave a Smad1 luciferase reporter in C2C12 cells, 30 ng/ml ligand with 30, 100 and 300 ng/ml Noggin (% of signaling levels) (AB212 (BBBBBA) (human)) of 75.

B2: Activin-βA (AAAAAA) (ligand)
chain: GLECDGKVNICCKKQFFVSFKDIGWNDWIIAPSGYHANYCEGECPSHIAGTSGSSLSFHSTVINHYRMRGHSPFANLKSCCVPTKLRPMSMLYYDDGQNIIKKDIQNMIVEECGCS
B2 was tested, and the Kd (ActRII-ECD (mouse)) was 0.203 nM, the koff (ActRII-ECD (mouse)) was 0.000716 s⁻¹ and the kon (ActRII-ECD (mouse)) was 3.52e+06 M⁻¹ s⁻¹.
